Among the data in a protein production outcome set (Wang et al. 2014) are protein production values, retold here.

The data set can be described thus: label from the status in PepcDB records.
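Also: failed if final PepcDB status was selected cloned or expressed and not failed if soluble or beyond.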

For the sequence “MTPEALSFWTQADKPFLFLAACIELTNALAYGPGYVCGLPCSWDGSCSGAQHLCAATRSEDAWKVNLIGNDEVHDLYTIVGNAAKQSMARDTDPMVSTILAYEGDWRKVFKRNTMTTFYGSKGFGMAQQHMDDLMEPLSREVMQKKRAKHPFGQTRKEHHAASRLLAAHAAAAIKGEIPLAIKAMEFIQKLSAMMAHEGKPLEWTTPIGLPWSNRYHDPVTERVNLWMHDHGVRRPFRPVVADGYKKTINKNHSVNGSAPNFVHACDAAHLLRTVNAARAEGITQFALVHDSFGSLPSHAARFRQIIREEFVRMYEEHDVLTEVLEQAKCDLDEHNDKLSALVDMRADLTGKLNIKEVLNAEYAFAYPKLSEPDTKGEYADGKYKTEGTATEDYTERFQEEIQKVADDNFPGKKNVHLPWKETKEGDIAFIFKNPKKKPILTDSRGKPLKEGTVIRGGSKIRIAGVIAAWEKGAKRGVSLWPDAVRVIKLSEGFDANAAFGAAEDGFNADDYEPTNFGNDGEDADNDADDAEAGDDAFKLLEHHHHHH”, the protein production result is recorded as “not failed”.
The value for “MTPELNLKSLGAKTPYIFEYNSQLLEAFPNPNPNLDPLITLECKEFTSLCPITSQPDFGVIFIRYIPKDKMVESKSLKLYLFSYRNHGSFHESCINTILLDLVRLLEPKYLEVYGDFASRGGIAIKPFVNYAIKEYQDFKEKRLLNAK” was “failed”; that for “MTPETNETLKLIGSDKVQGTAVYGPDGEKIGSIERVMIEKVSGRVSYAVLSFGGFLGIGDDHYPLPWPALKYNVELGGYQVMVTVDQLERAPKYGPGSEWDWRGARKVDDYYGVALT” was “not failed”; that for “MTPGEVRRLYFIIRTFLSYGLDELIPKMRITLPLRLWRYSLFWMPNRHKDKLLGERLRLALQELGPVWIKFGQMLSTRRDLFPPHIADQLALLQDKVAPFDGKLAKQQIEAAMGGLPVEAWFDDFEIKPLASASIAQVHTARLKSNGKEVVIKVIRPDILPVIKADLKLIYRLARWVPRLLPDGRRLRPTEVVREYEKTLIDELNLLRESANAIQLRRNFEDSPMLYIPEVYPDYCSEGMMVMERIYGIPVSDVAALEKNGTNMKLLAERGVQVFFTQVFRDSFFHADMHPGNIFVSYEHPENPKYIGIDCGIVGSLNKEDKRYLAENFIAFFNRDYRKVAELHVDSGWVPPDTNVEEFEFAIRTVCEPIFEKPLAEISFGHVLLNLFNTARRFNMEVQPQLVLLQKTLLYVEGVGRQLYPQLDLWKTAKPFLESWIKDQVGIPALVRAFKEKAPFWVEKMPELPELVYDSLRQGKYLQHSVDKIARELQSNHVRQGQSRYFLGIGATLVLSGTFLLVSRPEWGLMPGWLMAGGLIAWFVGWRKTR” was “failed”.
In the case of “MTPGTGSALGLLAAAVDAKAVAEIGTGCGVSGIHLLHGMRPDGVLTTVDPEPEHQQFARHAFRAAGFASNRARFIPGRALDVLPRLADAGYDLVFCDGDRLEYLDYLAESLRLLRPGGLVAFEGVFGAGRTIDSGPQPTEVLRVRELLRAVRESQELVPSLLPVGDGLLCAVKR”, the protein production entry is recorded as “failed”.
With “MTPPASSSPCSSSDKRNRAVPSAKALMVWRAGPDGRPLDPSQFPQDPPARRDGDGGGAEAWLNLVHPEEREAVLLLWRRALREGEEFEARYRLHRGLSGYRWALGQGRPLRGDDGEVREWIGTVVDIHDHMEAERTIALSEERLRLALDSADLGVWECTIATNQWWFSEAALRILGCPPDAETSIETVMGAIHSDDLDGLRARWHAARTGRARDRMEGEFRIQRGGGRLGWIACSARLVADDGKAVTRMLGTLRDITKTRLQREKLYHLAHFDPLTGLPNRHEMITRTQATLASGGAAGGAGAILLLDLDGFKEANDTLGQATGDALLKRIAHRLVSSLPADSLIGRVGGDEFLVVVPGVAEQWTATRIADGLYDVLTVPFVIGDRRIPLSGRIGIALAPRDGTSAQDLMTHAELALQETKTISGCVTRFFSPRLHDEARERQDMGLELRRATDNGEFELFYQPQIRLSDRAVVGAEALLRWRHPTRGVMPPAAFLHVLKRGPLAGEVGEWVVAKACADAAGLLNAGSRIRMAVNLFSAQFKAGTVDATVRRSLLESGLPAELLELEITEKVTLDRDEGILTCLKGLRDLGCGVAFDDYGTGYASLSMLKRYPLTRLKIDRAFVQHLAESPKDGAIVRAVLSLGNTFGLSVTAEGIEEEEQEKLLLGQGCDEGQGYFFGRPMPLADFIQFLARVKKNPGEFPTPA” the entry was “failed”; with “MTPQDAQAFEQLLANCADEPIRSPGAIQPHGVLLTLSEPELRIQQISANVEALLGQPAAQVLGQPLEQLLGDTDGQRIREVLQLPRLSDAPPLHLAVNGARFEGLLHRHQGVLMLELEIQLEHLQPQHLKEQTENLGRLLRRLQTAKTLNELYAISVSEIQAMTGYDRVLIYRFEEEGHGQVIAEATRPTMEVFNGLFFPASDIPQQARELYRSNWLRIIPNADYQPVPLLPALRPDTQQALDLSFATLRSVSPIHCQYMKNMGVLSSMSISLLKGDQLWGLISCGNRQPLLVPHELRIACQTIGQVLSLQISAMEALDISRQREEKVTALASLDQAMRDTPDSVFDGLAQVPQLLLDLTQAGGVAIIEDKQLHCFGNCPPQDEIRALHRWLQGTGQAVFASHHLANVYPPAASYQQVASGVLAMTLPKPVDNGVLWFRPEVKENINWSGNPQKPLDLENSDAGLRLRPRTSFEIWKVEMAGISTKWSHGDRFAANDLRRSALEHDLARQVLREQQAVRARDELVAVVSHDLRNPMTVISMLCGMMQKAFSSDGPHTSRRISSAIDTMQQAASRMNNLLEDLLDTSKIEAGRYSIAPQPLDVSQMFEEAYSLLAPLALDKAIDISFHAEPDLRINADPERLFQVLSNLVGNAIKFTPKQGKVGVVAMSDGEQIVFSVRDSGEGIPTDQLPFIFDRYWTMKEGNPNGTGLGLYITQGIIHAHGGKIEAHSEVGKGSEFRFSVPRASL”, “failed”.
“MTPRHQRDLSRRKLLAALAGTAVAVPAAAMGAPHALATVASDNGGAAPRAAGALPLTIVNRTGSFANSSVHLYIVGNEDGKQVRVTSEGTLAPISLADNGADGFTDYAIALSGSGETRLSLPYMSGRIYVALGDKLKLKAVADGNGNAALQYPAGWVESDPNYRVLHDCAEFTHNSAGMFCNTTMVDMFSVPLSIRLTGTKDQTTGTLRDGGRARVFAAVKSVPEFERLVVDDLRVIAPGHGLDAGIFAEDYFAPYIDEVWSTYTGKDLTVTTNAGAFTGRVRGDKLTFTGPASVSFSKPSTRDVFFCDGSLAAPNDGTTGPVAAVLGAGFNRSTLVNDSAQPTTDPAAFYGSALANHYAKAIHAATEDGKAYGFAFDDVADFASYIQDTAPTGINLTLTPF”: the protein production result is “failed”.
The value for “MTPRHQRPLARRKLLVALGGAVVAAPVAAAVAPHALAGIGPDGPAPAAAGALPLTIVNDTGSFGNADVHVYIVGNVDGRQVRVTPDGTVAPVALSDNGADGYTDYAIGLSGSGETKLSLPHLSGRIYVSLGEKLKFKVVADGAGNAALQYPAGWVESDPNYAVLHDCAEFTYNAAGMFCNTTMVDMFSVPLAIRLTGADDRTTGTVRPGGRAAVFEAVRKVEEFAPLVVDDTRVIAPGHGLDAGLFPKDYLAPYIDEVWSTYTGKDLRITTNAGTFTGRVRGDRLTFDGPAQVSFAKPSTRDVLFCDGNLAAPNDGTTGPVAAVLGAGFNRSTLVSSAEQPTTDPATFYGTALTNHYAKAVHAATEDGRAYGFAFDDVADFASYIQDTAPTGIRLTLGAFLEHHHHHH” was “failed”; that for “MTPVLSLDMEDPIRFIDENGSFEVVKVGHNLAIHGKKIFDELAKRNLKIILDLKFCDIPSTVERSIKSWDHPAIIGFTVHSCAGYESVERALSATDKHVFVVVKLTSMEGSLEDYMDRIEKLNKLGCDFVLPGPWAKALREKIKGKILVPGIRMEVKADDQKDVVTLEEMKGIANFAVLGREIYLSENPREKIKRIKEMRL” was “not failed”.
Turning to “MTQAFSRVRFIMTQPSHPGNVGSAARAIKTMGFGELVLVAPRFPDMTAQPEAVALASGALDVLERAAVHDTLEEALAPVTLAFALTTRVRDLGPPPCDIREAAGLARRHLDDTEAGVVAIVLGTERAGLTNAQIELCHRICHIPANPQYSSLNVAQALQLAAWELRYALLAGTGQSLLPASSAQQANPGAAPADGAAVQALLAHWEQALVAVGFLDPAHPKKLMPRMKHLLTRSALSRDEVDMLRGVCTAMIAPNRPK”, the protein production entry is on record as “not failed”.
With “MTQAKFVEGSILRHILVMSSTAAVGISALFVVDLLDIFFLSLLGEHELAAAVGYAGSISFFTTLIGIGLSIALGALVSRSIGAKDVELAKRLLLNSAVVTTLISVFVSIVVTTFIPELVTLVGASGHTAELAESYLYILVPSLPFICLAMALGGALRSVGDAKLSMMSTLAGGGVNAVLDPIFIFLFAMGIEGAALASVLARITVFVIAGRGVMVKHQLLGKFNRSDFKADLKPIFAIAGPAILTNIATPIGNAFVTRAIADFGDAYVAGWAVLGRLVPVTFGMIFALSGAIGPIVGQNFGAGRFDRVRESLTKAIQFCTLYVVVMSLLLFLLKSQIVSLFDMKGDSAALIEFFCSYIAVFFIFSGILFVANASFNNLGKAKYSTLFNVGKATLGTVPFVYVGAQLGGVYGVLIGQVIGSILFGVVGVWVAYRLVDKVVLTSTGHGVVSLATDADELMTDTVAPSATSPLSSSCAQMAQLTEEQEMEPVLPLIGQQDNSRR” the entry was “failed”.
Take “MTQASRSEFRAELLSRIPRWYSPWGHLLFPAVAGLAIAAFALSRIEDLAAWQLAAVPAFLVFGNAVEWTAHRGMLHRRLRFAEVFYVRHTPQHHAVYVADDMAMRDWRELKLVLLPAYGVLAILAVTSPLTLAFLWLRQPNLAALWVASVVLYVLSYEWLHLAYHLPADRWLARTALVRTLRRHHQLHHAPHLMNRWNFNVTVPLWDWVRGTLYPAPAPGSRPAAQPTGAAGRAP”: the protein production result is listed as “failed”.
With “MTQHITRMRREIDEIPEAVQRLLDHGAQDVARVAAVLRLRDPSFVATVARGSSDHVCTYLSYAAELLLGLPVASLGPSVASVYDARLRLDRALCLAVSQSGKSPDIVAMTRNAGRDGALCVALTNDAASPLAGVSAHTIDIHAGPELSVAATKTFVTSAVAGLMLLADWAEDDGLRAALGNLPETLAAASRIDWPEMRVAIGARPSLFTLGRGTSLAVSNEAALKFKETCQLHAESYSSAEVLHGPVSIVEEGFPVLGFAAGDAAEAPLAEIADQIAAKGATVFATTGRVTRARVLEHVRSGHALTDPLSLIVSFYSMVEAFASERGIDPDAPRHLNKVTETV” the entry was “not failed”.
Consider “MTQKNVITEVFDIVFIFVLAFACVVIPTVLQGAVLVSWEEGGAGIGFVWDPVGFFSFLLVIVAFFAVILYHSVKHYRY”, for which the protein production result is “failed”.
Regarding “MTQMRMPTSPTRPATAWPLYALPSPGEAIRQFTPNWFAVTMGTGILSLVLGQLPWPVPGAALLGAGLWRCNVGLFVVFSALYLARWALYPHEARRILAHPTASMFLGTIPMGLATLINGLLLYGLPRWGAAVIPVATALWWMDAAMALACGVLVPYLMFTRQQHRMEQMTALWLLPVVAAEVAAASAGALAPHLADAGSRFGMLVAGYVLWAYSVPVALGILVILWLRMALHQLPQASMAASSWLALGPIGTGALGMLVFAGDAPALFAAHGMGTIGQAAAGCGLIAGLLLWGLGLWWLALAILITARYFADKVPFNLGWWGFTFPLGVYALATLKLGAALQMQVFDVVGSVLVLLLCVTWTIVAARTAAGAYRGTLFVAPCLVESSEHAPAR”, the protein production entry was “failed”.
Take “MTQQNHLRGVLLASSACILWGISGVAASTLFINNPHLTAMWLTQVRMISAGLILLVWGMVAGKHPFKIWHHRHAAWTAVSYGLLGLIPVQLCYFEAVRVGNAPIATIIQFLGPFIISIYYFLFKHVTPSRIELIGMIMAFIGTLLIVTHGHLNSLAISPVILFWGGLSAIGVATNTLIPRTILPKYGALTVTGWGLLIAGLFLTLLQPMWRVHLTITWPQLGLLIVIILLGTVAPFLMFARSLSDILPTTASLMDAFEPLAATVFSITFLNVQLTSFDFIGGLLIILAVMALSLNTHKMLHFLRRRRAHSSS”: the protein production result is reported as “failed”.
The value for “MTQTNNPLHGITLETIITQLVEHYGWEELGARIKIRCFTEAPSIKSSLRFLRKTDWAREKVEYLYLKTNKLPLPAAKSIQAPAKEPSKKSAPKPNSKPTQTKVVTPTPAVEGQVNSHIWGKRDLEHHHHHH” was “not failed”.
